Blank lines part the entries; values can stand above or below the molecule they belong to.
How the values were obtained:
PK by Fc Detection = test: PK by Fc Detection
Description: Table printed on a drawing sheet, FIG. 3A-C
Title: PK by Fc Detection
(§1) Circles: IV injection of 1 mg/kg, squares: subcutaneous injection of 1 mg/kg. Pharmacokinetic parameters Cmax, bioavailability (F %) and half-life T1/2 are compared in panel C.
(§2) Circles: IV injection of 1 mg/kg, squares: subcutaneous injection of 1 mg/kg. Pharmacokinetic parameters Cmax, bioavailability (F %) and half life T112 are compared in panel F.
First reader's note: Panel C of FIG. 3A-C; the title 'PK by Fc Detection' is printed over the whole sheet, including plot panels A and B.

PK by Activity = test: PK by Activity
Description: Table printed on a drawing sheet, FIG. 3D-F
as §1, §2
First reader's note: Panel F of FIG. 3D-F; the pharmacokinetic parameters were derived from plasma levels measured by activity (sheet heading 'PK by Activity').

[1] = biological target: T1, rat GLP-1 receptor (rGLP-1r) (Rattus norvegicus, UniProt P32301); test: BSA-cAMP assay, cells expressing rat GLP-1 receptor; format: cell-based
T1 construct: expressed in transfected cells; host or cells: HEK293s or CHO cells
T1 sequence (P32301 22-463): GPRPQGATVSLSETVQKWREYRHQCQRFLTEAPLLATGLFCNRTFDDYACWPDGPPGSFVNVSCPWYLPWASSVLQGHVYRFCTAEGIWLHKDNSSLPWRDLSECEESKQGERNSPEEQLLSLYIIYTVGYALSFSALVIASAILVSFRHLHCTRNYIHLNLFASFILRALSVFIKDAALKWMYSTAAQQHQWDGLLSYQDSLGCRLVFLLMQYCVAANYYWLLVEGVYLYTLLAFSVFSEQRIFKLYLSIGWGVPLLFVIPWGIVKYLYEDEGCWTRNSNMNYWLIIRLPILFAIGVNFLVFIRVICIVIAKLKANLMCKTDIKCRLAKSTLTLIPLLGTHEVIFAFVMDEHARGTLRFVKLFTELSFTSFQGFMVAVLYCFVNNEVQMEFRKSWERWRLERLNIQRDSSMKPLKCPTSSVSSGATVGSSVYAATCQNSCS
In short: (§3)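 EC50 is the midpoint of an unconstrained 4-parameter logistic fit to HTRF cAMP data, expressed as percent of maximal native agonist response, from two separate occasions. Rodent (mouse, rat) GLP-1R- or GIPR-expressing cells were incubated with compound 30 min at room temperature in 0.1% BSA medium, in duplicate.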

[2] = biological target: T2, mouse GLP-1 receptor (mGLP-1r) (Mus musculus, UniProt O35659); test: BSA-cAMP assay, cells expressing mouse GLP-1 receptor; format: cell-based
T2 construct: expressed in transfected cells; host or cells: HEK293s or CHO cells
T2 sequence (O35659 22-463): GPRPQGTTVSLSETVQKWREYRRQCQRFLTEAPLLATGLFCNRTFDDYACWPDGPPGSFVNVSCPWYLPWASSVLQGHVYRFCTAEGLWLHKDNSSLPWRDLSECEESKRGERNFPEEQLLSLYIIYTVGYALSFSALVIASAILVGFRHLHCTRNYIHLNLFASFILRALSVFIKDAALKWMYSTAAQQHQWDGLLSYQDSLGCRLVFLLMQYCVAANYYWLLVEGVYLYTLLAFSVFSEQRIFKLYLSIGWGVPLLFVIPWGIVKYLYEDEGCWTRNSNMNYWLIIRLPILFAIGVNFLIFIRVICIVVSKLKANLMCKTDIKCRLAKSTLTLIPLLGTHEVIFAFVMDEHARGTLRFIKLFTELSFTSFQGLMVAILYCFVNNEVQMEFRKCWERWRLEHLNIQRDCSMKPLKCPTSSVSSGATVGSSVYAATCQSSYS
In short: as §3

[3] = Preliminary pharmacokinetics in mouse, serum activity at hGLP-1r by cAMP assay; format: in vivo; settings: 1 mg/kg subcutaneously, C57 Bl/6J mice, cAMP assay in HBSS/HEPES 0.1% BSA
Description: Preliminary pharmacokinetics in mouse was examined as follows: C57 Bl/6J mice were injected with 1 mg/kg (subcutaneously) with either IP088 or GLP1a-Fc, and serum samples were taken over time (3 animals per time point). The serum samples were then measured for activity at the hGLP-1r by the cAMP assay in HBSS/HEPES 0.1% BSA, as described above.

[4] = biological target: T3, human glucagon receptor (GCGr) (Homo sapiens, UniProt P47871); test: BSA-cAMP assay, cells expressing human glucagon receptor; format: cell-based; settings: Batch 1, read-out: hGCGr cAMP activity EC50
T3 construct: expressed in transfected cells; host or cells: HEK293s or CHO cells
T3 sequence (P47871 26-477): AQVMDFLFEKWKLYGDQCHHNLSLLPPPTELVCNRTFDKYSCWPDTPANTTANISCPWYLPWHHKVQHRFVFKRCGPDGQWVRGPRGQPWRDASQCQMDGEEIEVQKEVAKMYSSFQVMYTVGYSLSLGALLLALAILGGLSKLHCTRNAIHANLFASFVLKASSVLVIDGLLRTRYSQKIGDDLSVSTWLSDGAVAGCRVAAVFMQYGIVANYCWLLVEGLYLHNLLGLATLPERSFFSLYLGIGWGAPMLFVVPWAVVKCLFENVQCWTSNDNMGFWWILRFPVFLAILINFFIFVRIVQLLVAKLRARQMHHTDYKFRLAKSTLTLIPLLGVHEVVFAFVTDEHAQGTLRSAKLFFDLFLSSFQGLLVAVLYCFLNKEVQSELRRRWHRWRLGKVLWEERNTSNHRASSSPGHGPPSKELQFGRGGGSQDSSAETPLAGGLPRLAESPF

potency for GLP-1r, in words ([1]; rat receptor): high potency | potency for GLP-1r, in words ([2]; mouse receptor): high potency
B1: IP088: Fc fusion, IgG1-TM, SEQ ID NO:105; agonist peptide YSEGTFTSDYSKLLEEEAVRLFIEWLVKGP (SEQ ID NO:15) (protein)
chain: YSEGTFTSDYSKLLEEEAVRLFIEWLVKGPAAAGGSGSTASSGSGSATGGGGAATHTCPPCPAPEF
modifications: also: Fc fusion, IgG1-TM
Cmax (PK by Fc Detection): 9800 ng/mL | F (%) (PK by Fc Detection): 67% | t½ (PK by Fc Detection): 71 h | Cmax (PK by Activity): 98 nM | F (%) (PK by Activity): 72% | t½ (PK by Activity): 24 h | time for which serum activity at hGLP-1r is maintained in the nanomolar range in vivo [3]: at least 48 hours

EC50 [4]: > 1300 nM | EC50 ([1]; Batch 1, BSA-cAMP assay, read-out: rGLP1r cAMP activity EC50): 8 nM | EC50 ([2]; Batch 1, BSA-cAMP assay, read-out: mGLP1r cAMP activity EC50): 390 nM
B2: IP367 (protein)
chain: YSEGTFTSDYRILKERQAIDEFIAWLLKGGAAAGGSGSTASSGSGSATGGGGAATHTCPPC
